Reference: patent publication US5643731A, “Use of pairs of leucine zipper peptides in immunoassay methods” (Behringwerke Aktiengesellschaft, priority 1990, dated 1997)

What was measured:
[1] = biological target: T1, Jun-anti-AFP antibody binding to the Fos-coated microtiter plate (FBJ murine osteosarcoma virus, UniProt P01102); experiment: Inhibition of the Jun-anti-AFP antibody binding to the Fos-coated microtiter plate by addition of free peptide
T1 construct: host or cells: synthetic peptides; conjugate made in house
Protocol: 100 μl portions of a Jun peptide-anti-AFP antibody conjugate (anti-AFP antibodies from sheep) prepared as in Example 2, Step 3 or 3a are pipetted into the wells of microtiter plates which were coated with Fos peptide as in Example 2, Step 1, and incubated at 37° C. for 2h. After the wells had been washed three times with washing buffer (OSEW, Behringwerke), 20 μl portions of standard or sample and 100 μl of a buffer (OSND, Behringwerke) with the addition of peroxidase-conjugated anti-AFP antibodies from sheep were introduced. The two-hour incubation at 37° C. is again stopped with a washing step (see above), and the substrate/chromogen reaction is carried out as in Example 2, Step 4.
The Jun/Fos AFP assay described hereinbefore was preceded by an incubation step with 100 μl in each case of a Jun or Fos peptide-containing buffer solution (buffer=OSND) per well at 37° C. for one hour. After 3 washes, the subsequent assay procedure was as specified above.

[2] = biological target: c-Jun "leucine zipper peptide" (SEQ ID No1) (Homo sapiens, UniProt P05412); details: cited from earlier work

## LTDTLQAETDQLEDKKSALQTEIANLLKEKEKLEFILAAY [Fos, synthetic peptide comprising positions 162 to 201, the leucine zipper of the v-Fos protein]
[1]; free peptide 5 μg/ml
  Measured signal (extinction 450 nm) Standard S0 (0 IU AFP/ml): 0.010
  Measured signal (extinction 450 nm) Standard S5 (300 IU AFP/ml): 3.416
[1]; free peptide 50 μg/ml
  Measured signal (extinction 450 nm) Standard S0 (0 IU AFP/ml): 0.011
  Measured signal (extinction 450 nm) Standard S5 (300 IU AFP/ml): 3.572
[1]; free peptide 500 μg/ml
  Measured signal (extinction 450 nm) Standard S0 (0 IU AFP/ml): 0.015
  Measured signal (extinction 450 nm) Standard S5 (300 IU AFP/ml): 3.694
[2]
  heterodimeric complexes with the c-Jun "leucine zipper peptide": forms very stable heterodimeric complexes

## RIARLEEKVKTLKAQNSELASTANMLREQVAQLKQKVMNY [Jun, synthetic peptide comprising amino-acid positions 285 to 324, the so-called leucine zipper of the c-Jun protein]
[1]; addition of free peptide
  inhibition of the binding of Jun-anti-AFP antibody to the Fos-coated solid phase: possible to inhibit the binding
[1]; free peptide 5 μg/ml
  Measured signal (extinction 450 nm) Standard S0 (0 IU AFP/ml): 0.015
  Measured signal (extinction 450 nm) Standard S5 (300 IU AFP/ml): 3.486
[1]; free peptide 50 μg/ml
  Measured signal (extinction 450 nm) Standard S0 (0 IU AFP/ml): 0.011
  Measured signal (extinction 450 nm) Standard S5 (300 IU AFP/ml): 2.857
[1]; free peptide 500 μg/ml
  Measured signal (extinction 450 nm) Standard S0 (0 IU AFP/ml): 0.013
  Measured signal (extinction 450 nm) Standard S5 (300 IU AFP/ml): 1.371
